Assay results taken from the nanobody polyreactivity screen of Harvey et al. (2022).

Assay: yeast display, Sf9 membrane polyspecificity reagent, FACS + sequencing; frameworks hold sequencing errors
Outline: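 Genes from sorted yeast were amplified by colony PCR, read by MiSeq 2 × 250 sequencing and filtered on CDR length. These cells carried a synthetic nanobody library in Saccharomyces cerevisiae BJ5465 and were sorted by FACS into low and high (top ~1%) gates on anti-HA and streptavidin fluorescence. Polyreactivity is labelled according to the gate of origin.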

| Sequence | polyreactivity (PSR sort gate) |
| --- | --- |
| QVQLVESGGGLVQAGGSLRLSCAASGITFHRNTMGWYRQAPGTETELVDSITSGGITYYADSVKGSFTISRDNEKNTVYLQMNSLKPEDTAVYYCAAEGYWTYWVARSDIPYFYWGQGSQVTVSS | high polyreactivity |
| QVQLVESGGGLVQAGGSLRLSCAASGITFHVNAMGWYRQAPGKERELVARITTSGGSTSYADSVKGRFTISRDNAKNTVYLQMNSLKPEDTAVYYCAADLARYYSEYDYWGQGTQVTVSS | low polyreactivity |
| QVQLVESGGGLVQAGGSLRLSCAASGITFIAYTMGWYRQAPGKERELVAGISRNGGRTYYADSVKGRFTISRDNAKNTVYLQMNSLKPEDTAVYYCNKVVSTYSSIKYDYWGQGTQVTVSS | high polyreactivity |
| QVQLVESGGGLVQAGGSLRLSCAASGITFISYVKGWYRQAPGKEREVVAAISKRGGSTYYADSVKGRFTISRDNAKNTVYFKINSLKAEDTAVYYCAAKTIPWSVGYDYWGQGTQVTVSS | high polyreactivity |
| QVQLVESGGGLVQAGGSLRLSCAASGITFIVNAMGWYRQAPGKERELVARITTSGGSTSYADSVKGRFTISRDNAKYTVYLQMYSLKPEDSAVYYCAADRGGYYSEYDYWGQGTQVTVSS | low polyreactivity |
| QVQLVESGGGLVQAGGSLRLSCAASGITFIYYAMGWYRQAPGKERELVAAISTGGSTYYADSVKGRCTISRDNAKNTVYLQRKSLKPEDTAVYFWNALRKSLRGGDYWGQGTQVTVSS | high polyreactivity |
| QVQLVESGGGLVQAGGSLRLSCAASGITFKAYAMGWYRQAPGKERELVAAINTSGARTYYADSVKGRFTISRDNAKNTVYLQMNSLKTEDTAVYYCNARLHQQEGDDWGQGTQVTVSS | low polyreactivity |
| QVQLVESGGGLVQAGGSLRLSCAASGITFKRYAMGWYRQAPGKERELVAAITISAGSTYYADSVKGRFTISRDNAKNNVYLQMNSLKPEDTAVYYCAAESYGSWYYYWGQGTQVTVSS | high polyreactivity |
| QVQLVESGGGLVQAGGSLRLSCAASGITFKRYTMGWYRQAPGKERELVADITWSGGSTYADSVKGRFTISRDNAKNTVYLQMNSLKPEDTAVYYCAAEWQTWYGVEYDYWGQGTQVTVSS | high polyreactivity |
| QVQLVESGGGLVQAGGSLRLSCAASGITFKSNAMGWYRQAPGKERELVAAISRRASSTYYADSVKGRFTISRDNAKNTVYLQMNSLKPEDTAVYYCNAVLPVYRTNMDYWGQGTQVTVST | high polyreactivity |
| QVQLVESGGGLVQAGGSLRLSCAASGITFKSYAMGWYRKAPGKERELVAAITRSGGSTYYADSVKGRLTISRDNAKNTVYLQMNSLKPEDTAVYYCAARYFIAYPQYTYDYWGQGTQVTVSS | high polyreactivity |
| QVQLVESGGGLVQAGGSLRLSCAASGITFKTYAMGWYRQAPGKERELVATINRGSRTNYADSVKGRFTISRDNAKNTVYLQMNSLKPEDTAVYYCAAEYVTYISSEMDYWGQGTQVTVSS | low polyreactivity |
| QVQLVESGGGLVQAGGSLRLSCAASGITFKTYTMGWYRQAPGKERELVAAITRSGAGTYYADSVKGRFTISRDNAKNTVDLQMNSLKPEDTAVYYCAARVRWGYRYGYWGQGTQVTVSS | high polyreactivity |
| QVQLVESGGGLVQAGGSLRLSCAASGITFKVYAMGWYRQAPRKEREFVAAITYSGGRTYYADSVKGRFTISRDNAKNTVYLQMNSLQPEDTAVYYCAKEYGIYTDTPYYYWGQGTQVTVSS | low polyreactivity |
| QVQLVESGGGLVQAGGSLRLSCAASGITFKWYAMGWYRQAPGKERELVAAISWSTGSTYYADSVKGRFTISRDNAKNTVYLQMNSLKPEDTSVYYCAARVKRPQTGYDRRYGYWGQGTQVTVSS | high polyreactivity |
| QVQLVESGGGLVQAGGSLRLSCAASGITFKYYAMGWYRQAPGKERELVAAINWSGDRTYYADSVKGRFTISRDNAKNTVYLQMNSLKPEDTAVYYCAATAWPGRYWRQEVDYWGQGTQVTVSS | high polyreactivity |
| QVQLVESGGGLVQAGGSLRLSCAASGITFLDYAMGWYRQAPGKERELVADISTSGGSTYYADSVKGRFTISRDNAKNTVYLQMNSLKPEDTAVYYCAADTFDFWWSLGSMDYWGQGTQVTVSS | high polyreactivity |
| QVQLVESGGGLVQAGGSLRLSCAASGITFLFYAMGWYIPAPGKEREYVAAISTRGGRTYYADSVKGRFTISRDNAKNTVYLQMNSLKPEDTAVYYCAADFYYRTVATVTSVARYDYWGQGTQVTVSS | high polyreactivity |
| QVQLVESGGGLVQAGGSLRLSCAASGITFLFYARGWYRKAPGKERELVAAISSGDNTYYADSVKGRFTISRDNGKNTVYLQMKSLKPDDTAVYYCAAEKYGYDYWGQGTQVTVSS | low polyreactivity |
| QVQLVESGGGLVQAGGSLRLSCAASGITFLGYVMGWYRQAPGKEREFVADITESGGRTYYADSVKGRFTISRDNAKNTVYLQMNSLKPEDTAVYYCAAELSYWGYYYSFDYWGQGTQVTVSS | low polyreactivity |
| QVQLVESGGGLVQAGGSLRLSCAASGITFLHYALGWYRQAPGKERELDAAISVRGGITYYADSVKGRFTISRDNAKNTVYLQMHSLKPEDTAVFYCAADRPKFYNSIYDYWGQGTQVTVSS | low polyreactivity |
| QVQLVESGGGLVQAGGSLRLSCAASGITFLKNAMGWYRQAPGKERELVAAISSSGGSTYYADSVKGRFTISRDNAKNTVYLQMNSLKPEDTAVYFCAARIYWYTPGRRGYTYDYWGQGTQVTVSS | high polyreactivity |

| Sequence | polyreactivity (PSR sort gate) |
| --- | --- |
| QVQLVESGGGLVQAGGSLRLSCAASGITFLNYAMGWYRQAPGKERELVAAISWSGGRTYYADSVKGRFTISRDKGKNTVYLQMNSLKPEDTAVYYCAADRGVNSYGYWGQGTQVTVSS | high polyreactivity |
| QVQLVESGGGLVQAGGSLRLSCAASGITFLPYAMGWYRPAPGKERELVAAITRGGGSTYADSVKGRFTISRDNAKNTVYLQMNSLKPEDTAVYYCAKRYGRVSWYEDYDYWGQGTQVTVSS | low polyreactivity |
| QVQLVESGGGLVQAGGSLRLSCAASGITFLPYTMGWYRQAPGKERELVATISWNGGSTYYADSVKGRFTISRDNAKNTVYLQMNSLKPEDTAVYYCAARQVQAPRSIGFYYWGQGTQVTVSS | high polyreactivity |
| QVQLVESGGGLVQAGGSLRLSCAASGITFLYYAMGRYRPAPGKERELVAAITGDGSTTYADSVKGRFTISRDNAKNTVYLQMNSLKPEDTAGYYCAADDQYYGDGFWGQGTQLTVSS | high polyreactivity |
| QVQLVESGGGLVQAGGSLRLSCAASGITFNAYAMGWYRQAPGKERELVAAITSSGSSTYYADSVKGRFTISRDYAKNTVYLQMNSLKPDDTAVYYCAATRGTKFYWGQGTQVTVSS | high polyreactivity |
| QVQLVESGGGLVQAGGSLRLSCAASGITFNGYAMGWYRQAPGKERELVAAISSSGGRTRYADSVKGRFTISRDNAKNTVYLQMNSLKPEDTAVYYCNARGYGQSNYWGQGTQVTVSS | high polyreactivity |
| QVQLVESGGGLVQAGGSLRLSCAASGITFNKYAMGWYRQAPGKERELVAAISSRGGSTYYADSVKGRFTISRDNAKNTVYLQMNSLKPEDTAVYYCNADFYRASSNFDYWGQGTQVSVSS | high polyreactivity |
| QVQLVESGGGLVQAGGSLRLSCAASGITFNKYAMGWYRQAPGKERELVAAISSRGGSTYYADSVKGRFTISRDNAKNTVYLQMNSLKPEDTAVYYCNADVYRASNFDYWGQGTQVTVSS | high polyreactivity |
| QVQLVESGGGLVQAGGSLRLSCAASGITFNLNDMGWYRQAPGKERELVAAITSGGNTSYADSVKGRFTISRDNAKNTVDLQMNSLKPEDTAVYYCATEDFRTDTGMYYWGQGTQVTVSS | low polyreactivity |
| QVQLVESGGGLVQAGGSLRLSCAASGITFNLYAMGWYRQAPGKERELVAGITGGGSTYYADSVKGRFTISRDNAKNTVYLQMNSLTPEDTAVYYSTARRLGARYRGYYWGQGTQVTVSS | high polyreactivity |
| QVQLVESGGGLVQAGGSLRLSCAASGITFNRYALGWYRQAPGKERELVASIRWSGGSTNYADSVKGRFTISRDNGKNTVYLQMKSLKPEDTAVYYCNAGRESDDVYEGSQRIGQFDYWGQGTQVTVSS | low polyreactivity |
| QVQLVESGGGLVQAGGSLRLSCAASGITFNRYAMGWYRQAPGKERELVAGISRGVSTYYADSVKGRFTISRDNAKNTVYLQMKSLKPEDTAVYYCAAKPVVRYVSFGYDYWGQGTQVTVSS | high polyreactivity |
| QVQLVESGGGLVQAGGSLRLSCAASGITFNSNAMGWYRQAPGKERELVATISNGGSTNYADSVKGRFTISRDNAKNTVYLQMNSLKPEDTAVYDCNTRRGSLSGLYVYSIQGYDYWGQGTQVTVSS | low polyreactivity |
| QVQLVESGGGLVQAGGSLRLSCAASGITFNSYVMGWYRQAPGKERELVAAIRWSGGRTYYADSVKGRFTISRDNAKNTVYLQMNSLKPEDTAVYYCNRVTRSHVDYWGQGTQVTVSS | high polyreactivity |
| QVQLVESGGGLVQAGGSLRLSCAASGITFNTDTMGWYRQAPGKEWELVAAITLSGAGTYYADSVKGRFTISRDNAKNTVYLQMNSLKPEDTAVYYCAAYLSENRWPYVRYDYWGQGTQVTVSS | high polyreactivity |
| QVQLVESGGGLVQAGGSLRLSCAASGITFNYYVMGWYRQAPGKERELVAAIRRGGSTNYADSVKGRFTISRDNAKNPVYLQMNSLKPEDTAVYYCAARTYRGLAYDYWGQGTQVTVSS | high polyreactivity |
| QVQLVESGGGLVQAGGSLRLSCAASGITFPANAMGWYRQAPGKERELVAAISSSGGSTYYADSVKGRFTISRDNAKNTVYLQMNSLKPEDTAVYYCAAYYGPSRSLYYYWGQGTQVTVSS | high polyreactivity |
| QVQLVESGGGLVQAGGSLRLSCAASGITFPFYAMGWYRQAPGKERELVAAISWSDVDTYYADSVKGRFTISRDNAKNTVYLQMNSLKPEDTAVYYCAVSGVHPYWSDYEYWGQGTQVTVSS | low polyreactivity |
| QVQLVESGGGLVQAGGSLRLSCAASGITFPGNAMGWYRQAPGKERDLVAVISSGTSTNYADSVKGRFTISRDNAKNTVYLHMNSLKPEDTAVYYCAKATSSFYHYRYDYWGQGTQVTVSS | low polyreactivity |
| QVQLVESGGGLVQAGGSLRLSCAASGITFPLYAMGWYRQAPGKERELVATISGRGGSTYYADSVKGRFTISRDNAKNTVYLQMNSLKPEDTEVYYCNADFRSPYFLLSWYHSGDYWGQGTQVTVSS | low polyreactivity |
| QVQLVESGGGLVQAGGSLRLSCAASGITFPQNAMGWYRQAPGKERELVATIDNVGSTNYADSVKGRFTISRDNAKNTVYLQMNSLKPEDTAGYYCAKDYDWTLDYDGYPGYDYWGQGTQVTVSS | high polyreactivity |
